Patent US20020090382A1 (UNIVERSITY OF PITTSBURGH OF THE COMMONWEALTH SYSTEM OF …, published 2002)

What was measured:
HveC(346t) = biological target: T1, HveC(346t) (UniProt Q15223 31-346); test: ELISA, peptide on coated HveC(346t), antiserum R11
T1 construct: Purified soluble receptor coated on ELISA plates; also called recombinant HveC; soluble gD receptor HveC
T1 sequence: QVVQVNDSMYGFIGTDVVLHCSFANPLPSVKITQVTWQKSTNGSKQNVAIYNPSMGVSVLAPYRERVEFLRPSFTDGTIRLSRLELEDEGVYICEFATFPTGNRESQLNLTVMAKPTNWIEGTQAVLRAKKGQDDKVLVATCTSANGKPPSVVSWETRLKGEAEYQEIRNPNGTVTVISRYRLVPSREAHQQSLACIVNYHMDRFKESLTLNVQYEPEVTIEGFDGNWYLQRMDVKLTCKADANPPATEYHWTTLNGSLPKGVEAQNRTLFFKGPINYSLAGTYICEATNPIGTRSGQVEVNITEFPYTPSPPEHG

HveA(200t) = biological target: T2, HveA(200t) (UniProt Q92956 39-200); test: ELISA, peptide on coated HveA(200t), antiserum R11
T2 construct: Purified soluble receptor coated on ELISA plates; also called recombinant HveA; soluble gD receptor HveA
T2 sequence: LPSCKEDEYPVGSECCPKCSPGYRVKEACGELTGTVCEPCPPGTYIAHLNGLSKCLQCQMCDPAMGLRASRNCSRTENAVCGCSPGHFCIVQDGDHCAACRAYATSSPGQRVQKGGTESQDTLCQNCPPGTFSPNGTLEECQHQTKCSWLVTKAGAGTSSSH

ASLKMADPNRFRGKDLPVLDQ (synthetic peptide) [Polypeptide A1]: no binding (tested: between 1 µM and 1000 µM) (HveC(346t)); no binding (tested: between 1 µM and 1000 µM) (HveA(200t)).
